Key:
Type in all cases: cell-based, human
[1] = system: CD34+ HSPCs; assay: TPO requirement with or without TNFα, 14-day culture; conditions: 14 days
Protocol: To assess the requirement for TPO in T lineage development, CD34+ HSPCs were analyzed by flow cytometry after 14 days in the presence or absence of TNFα, and further in the presence or absence of TPO.

[2] = system: CD34+ HSPCs; assay: Definitive screening design cytokine screen for proT cell differentiation and expansion; conditions: for effect on total live cells, CD7+ lymphocytes and CD7+CD5+ cells relative to the control condition: day 0-7 and day 7-14, control SCF, FLT3L, TPO, IL-7 at 20 ng/ml each, linear regression model
Protocol: For experiments 7 days or longer, HSPCs were seeded at 63-125 cells/mm^2 (equivalent to 2000-4000 cells/well of a 96-well plate) on DL4+VCAM-1-coated surfaces. Experiments shorter than 7 days (CFSE and qPCR) were seeded at 470-780 cells/mm^2 (equivalent to 15,000-25,000 cells/well of a 96-well plate) to provide enough cells for analysis. Cells were cultured in 100 μl/well (32 μl/well for 384-well plate) of Iscove's Modified Eagle Medium (IMDM) supplemented with 20% bovine serum albumin, insulin, and transferrin (BIT 9500) serum substitute (Stemcell Technologies), 1 μg/ml low-density lipoprotein (LDL; Stemcell Technologies), 60 μM ascorbic acid (Sigma), 24 μM 2-mercaptoethanol (Sigma), and 1% penicillin-streptomycin (P/S; Invitrogen). The cytokines used in control condition were SCF, FLT3L, TPO, and IL-7 (also known as the “4F cytokines”, all of which were obtained from R&D Systems), each at a concentration of 20 ng/ml or 100 ng/ml as indicated in the text. All other cytokines were purchased from R&D Systems and used in the combinations and concentrations indicated in the text. For certain experiments, the γ-secretase inhibitor (2S)-N-[(3,5-Difluorophenyl)acetyl]-L-alanyl-2-phenyl] glycine 1,1-dimethylethyl ester (DAPT) or dimethyl sulfoxide (DMSO) was added to media at the concentrations indicated in the text.
For screening experiments, a Definitive Screening Design (DSD)^7 was employed where each factor was tested at three levels (scaled to [−1,0,1]). The design included at least 2m+1 runs, where m is the number of factors, comprised of m fold-over pairs plus a center run (with all factors at level 0) and with orthogonal blocking of UCB donors.^8
Absolute cell numbers were acquired for each cell population of interest and, for initial experiments, a z-score was calculated relative to the control condition:
where SE(⋅) is the standard error. Control conditions were the cytokines used previously in the DL4+VCAM-1 assay as in Shukla et al.^6 Stepwise regression using the minimum Bayesian information criterion method was used to determine significant terms and, from this, a linear regression model of z-scores was constructed that included main and quadratic effects and two-factor interactions. This provided a better- or worse-than estimate for each factor compared to the control. The DSD layout and regression model were constructed using JMP 13 software (SAS). Follow up experiments measuring the dose response of top factors, the regression model was fit to the absolute cell count. Values were square root or log-transformed as necessary to ensure that residuals were approximately normal before fitting the regression model.
Test conditions were arranged using serial dilutions of each cytokine and laid out using an Eppendorf epMotion 5070 liquid handler in 384-well plates previously coated with DL4 and VCAM-1.
To identify factors that enhance proT cell differentiation and expansion, a two-part screen was conducted from day 0-7 and day 7-14 to separate the effects of screened molecules on HSPCs and differentiating proT cells (FIG. 1a). Screened molecules were tested at three doses each in combination using a definitive screening design (DSD) experiment and a linear regression model was fit to empirical data to estimate dose response.^7 The response to factors was measured against a control condition that contained SCF, FLT3L, TPO and IL-7 cytokines as in Shukla et al.^6 but using a lower concentration of 20 ng/ml each.
Medium gray indicates the effect of the control condition; dark gray to black indicates an effect greater than the control condition; and light gray to white indicates an effect lesser than the control condition. The size of each circle indicates the significance of the effect in the linear regression model. Combinations of factors indicate two-factor interactions (e.g., TPO*IL-1β) or quadratic effects (e.g., IL-21*IL-21) in the regression model. […] IL-3 and TNFα were selected for further investigation. […]

[3] = system: CD34+ HSPCs; assay: IL-3, TNFα or IL-3+TNFα culture on DL4+VCAM-1, flow cytometry on day 7 and day 14; conditions: day 7 and day 14 (FIGS. 5d and e)
Protocol: For experiments 7 days or longer, HSPCs were seeded at 63-125 cells/mm^2 (equivalent to 2000-4000 cells/well of a 96-well plate) on DL4+VCAM-1-coated surfaces. Experiments shorter than 7 days (CFSE and qPCR) were seeded at 470-780 cells/mm^2 (equivalent to 15,000-25,000 cells/well of a 96-well plate) to provide enough cells for analysis. Cells were cultured in 100 μl/well (32 μl/well for 384-well plate) of Iscove's Modified Eagle Medium (IMDM) supplemented with 20% bovine serum albumin, insulin, and transferrin (BIT 9500) serum substitute (Stemcell Technologies), 1 μg/ml low-density lipoprotein (LDL; Stemcell Technologies), 60 μM ascorbic acid (Sigma), 24 μM 2-mercaptoethanol (Sigma), and 1% penicillin-streptomycin (P/S; Invitrogen). The cytokines used in control condition were SCF, FLT3L, TPO, and IL-7 (also known as the “4F cytokines”, all of which were obtained from R&D Systems), each at a concentration of 20 ng/ml or 100 ng/ml as indicated in the text. All other cytokines were purchased from R&D Systems and used in the combinations and concentrations indicated in the text. For certain experiments, the γ-secretase inhibitor (2S)-N-[(3,5-Difluorophenyl)acetyl]-L-alanyl-2-phenyl] glycine 1,1-dimethylethyl ester (DAPT) or dimethyl sulfoxide (DMSO) was added to media at the concentrations indicated in the text. […]

[4] = system: HSPCs; assay: CFSE proliferation assay of HSPCs on DL4+VCAM-1
Protocol: To track the number of cell divisions, cells were stained with 2.5 μM CellTrace™ CFSE (ThermoFisher) in PBS and incubated at 37° C. for 8 minutes. CFSE was quenched by adding 5 times the volume of IMDM+BIT and incubating at 37° C. for 5 minutes. Cells were then resuspended in fresh media and seeded on DL4+VCAM-1 for culture. For analysis, cells were collected and stained for CD34, CD7, and CD5 surface markers as described above and analyzed using flow cytometry. Proliferation was modelled using FlowJo™ software and further analysis was performed with R.
To track the number of cell divisions in response to each of IL-3 and TNFα, the HSPCs were first stained with carboxyfluorescein succinimidyl ester (CFSE). IL-3 or TNFα were added on day 0 and the number of divisions of each cell was analyzed on days 2, 3, 4 and 5.

Molecule: TPO: cytokine thrombopoietin, one of the 4F cytokines
- CD7+ lymphoid cell development after removal of TPO ([1]; TNFα present): not detrimental
- number of CD7+ cells after removal of TPO ([1]; absence of TNFα): decreased significantly
- number of CD14/33+ myeloid cells after removal of TPO ([1]; with or without TNFα): decreased the number of CD14/33+ myeloid cells

Molecule: SCF: cytokine stem cell factor, one of the 4F cytokines
- effect on total live cells, CD7+ lymphocytes and CD7+CD5+ cells relative to the control condition [2]: string positive effects

B1: IL-3: cytokine; protein that in humans is encoded by the IL3 gene (accession P08700; SEQ ID NO: 7) (protein, listed as Homo sapiens)
chain: MSRLPVLLLLQLLVRPGLQAPMTQTTPLKTSWVNCSNMIDEIITHLKQPPLPLLDFNNLNGEDQDILMENNLRRPNLEAFNRAVKSLQNASAIESILKNLLPCLPLATAAPTRHPIHIKDGDWNEFRRKLTFYLKTLENAQAQQTTLSLAIF
- effect on total live cells, CD7+ lymphocytes and CD7+CD5+ cells relative to the control condition [2]: string positive effects
- dose response of live cells, CD7+ lymphocytes and CD7+CD5+ proT cells ([2]; range of concentrations, n=2 UCB donors): curved response in at least one population
- number of CD14/33+ myeloid lineage cells, IL-3 compared with IL-3+TNFα conditions [3]: similar
- average number of divisions vs control ([4]; CFSE, days 2-5): more divisions than the control group
- variance in the number of divisions vs control ([4]; CFSE, days 2-5): significantly larger variance
- CD7+ frequency vs control ([4]; by day 5): lower CD7+frequency than the control
- cell fraction affected (CD7− vs CD7+ cells), number of divisions ([4]; cytokine added on day 0, days 2-5): predominantly affecting the CD7− fraction
- upregulation of CD7 ([4]; days 2-5): upregulated CD7 comparably to the control

B2: IL-7: cytokine interleukin 7, one of the 4F cytokines (protein, UniProt P13232 26-177, looked up)
Interleukin-7: DCDIEGKDGKQYESVLMVSIDQLLDSMKEIGSNCLNNEFNFFKRHICDANKEGMFLFRAARKLRQFLKMNSTGDFDLHLLKVSEGTTILLNCTGQVKGRKPAALGEAQPTKSLEENKSLKEQKKLNDLCFLKRLLQEIKTCWNKILMGTKEH
- effect on total live cells, CD7+ lymphocytes and CD7+CD5+ cells relative to the control condition [2]: string positive effects

— patent publication US20220403326A1, “MEDIA FORMULATIONS AND METHODS FOR PRODUCING PROGENITOR T CELLS” (priority 2019, published 2022)
